These results are taken from paper PMC11574045, “A cofactor-induced repressive type of transcription factor condensation can be induced by synthetic peptides to suppress tumorigenesis” (The EMBO Journal, 2024).

This assay has as its system HEK293FT cells transfected with TF library. Description: Screening of TF condensates based on fluorescent puncta. The format is cell-based. The note with it: Figure 1B numerical data; TF library screen, one value per transcriptional factor. The essentials: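 Puncta scoring used automated confocal imaging of fifty random fields per well, after anti-Flag or anti-GAL4 immunofluorescence (Alexa 488) in PFA-fixed cells. HEK293FT cells carried TF library plasmids delivered with PEI (1.6 μg/ml DNA). At 60 h they were switched for 12 h to glucose-containing or glucose-free medium.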

B1: JADE2 (protein, UniProt Q9NQC1 1-790, looked up)
E3 ubiquitin-protein ligase …: MEEKRRKYSISSDNSDTTDSHATSTSASRCSKLPSSTKSGWPRQNEKKPSEVFRTDLITAMKIPDSYQLSPDDYYILADPWRQEWEKGVQVPAGAEAIPEPVVRILPPLEGPPAQASPSSTMLGEGSQPDWPGGSRYDLDEIDAYWLELINSELKEMERPELDELTLERVLEELETLCHQNMARAIETQEGLGIEYDEDVVCDVCRSPEGEDGNEMVFCDKCNVCVHQACYGILKVPTGSWLCRTCALGVQPKCLLCPKRGGALKPTRSGTKWVHVSCALWIPEVSIGCPEKMEPITKISHIPASRWALSCSLCKECTGTCIQCSMPSCVTAFHVTCAFDHGLEMRTILADNDEVKFKSFCQEHSDGGPRNEPTSEPTEPSQAGEDLEKVTLRKQRLQQLEEDFYELVEPAEVAERLDLAEALVDFIYQYWKLKRKANANQPLLTPKTDEVDNLAQQEQDVLYRRLKLFTHLRQDLERVRNLCYMVTRRERTKHAICKLQEQIFHLQMKLIEQDLCRGLSTSFPIDGTFFNSWLAQSVQITAENMAMSEWPLNNGHREDPAPGLLSEELLQDEETLLSFMRDPSLRPGDPARKARGRTRLPAKKKPPPPPPQDGPGSRTTPDKAPKKTWGQDAGSGKGGQGPPTRKPPRRTSSHLPSSPAAGDCPILATPESPPPLAPETPDEAASVAADSDVQVPGPAASPKPLGRLRPPRESKVTRRLPGARPDAGMGPPSAVAERPKVSLHFDTETDGYFSDGEMSDSDVEAEDGGVQRGPREAGAEEVVRMGVLAS
For the molecule B1, the “Z score of condensed fraction” value is reported as -1.0906.

B2: IRF5 (protein, UniProt Q13568 1-498, looked up)
Interferon regulatory factor 5: MNQSIPVAPTPPRRVRLKPWLVAQVNSCQYPGLQWVNGEKKLFCIPWRHATRHGPSQDGDNTIFKAWAKETGKYTEGVDEADPAKWKANLRCALNKSRDFRLIYDGPRDMPPQPYKIYEVCSNGPAPTDSQPPEDYSFGAGEEEEEEEELQRMLPSLSLTEDVKWPPTLQPPTLRPPTLQPPTLQPPVVLGPPAPDPSPLAPPPGNPAGFRELLSEVLEPGPLPASLPPAGEQLLPDLLISPHMLPLTDLEIKFQYRGRPPRALTISNPHGCRLFYSQLEATQEQVELFGPISLEQVRFPSPEDIPSDKQRFYTNQLLDVLDRGLILQLQGQDLYAIRLCQCKVFWSGPCASAHDSCPNPIQREVKTKLFSLEHFLNELILFQKGQTNTPPPFEIFFCFGEEWPDRKPREKKLITVQVVPVAARLLLEMFSGELSWSADSIRLQISNPDLKDRMVEQFKELHHIWQSQQRLQPVAQAPPGAGLGVGQGPWPMHPAGMQ
Take B2: the “Z score of condensed fraction” value is listed as -0.5098.

B3: ING1L (protein, UniProt Q9H160 1-280, looked up)
Inhibitor of growth protein 2: MLGQQQQQLYSSAALLTGERSRLLTCYVQDYLECVESLPHDMQRNVSVLRELDNKYQETLKEIDDVYEKYKKEDDLNQKKRLQQLLQRALINSQELGDEKIQIVTQMLELVENRARQMELHSQCFQDPAESERASDKAKMDSSQPERSSRRPRRQRTSESRDLCHMANGIEDCDDQPPKEKKSKSAKKKKRSKAKQEREASPVEFAIDPNEPTYCLCNQVSYGEMIGCDNEQCPIEWFHFSCVSLTYKPKGKWYCPKCRGDNEKTMDKSTEKTKKDRRSR
As for B3, the “Z score of condensed fraction” value is recorded as -0.141.

B4: JUNB (protein, UniProt P17275 1-347, looked up)
Transcription factor JunB: MCTKMEQPFYHDDSYTATGYGRAPGGLSLHDYKLLKPSLAVNLADPYRSLKAPGARGPGPEGGGGGSYFSGQGSDTGASLKLASSELERLIVPNSNGVITTTPTPPGQYFYPRGGGSGGGAGGAGGGVTEEQEGFADGFVKALDDLHKMNHVTPPNVSLGATGGPPAGPGGVYAGPEPPPVYTNLSSYSPASASSGGAGAAVGTGSSYPTTTISYLPHAPPFAGGHPAQLGLGRGASTFKEEPQTVPEARSRDATPPVSPINMEDQERIKVERKRLRNRLAATKCRKRKLERIARLEDKVKTLKAENAGLSSTAGLLREQVAQLKQKVMTHVSNGCQLLLGVKGHAF
B4: the “Z score of condensed fraction” value is -0.9915.

B5: IRF2 (protein, UniProt P14316 1-349, looked up)
Interferon regulatory factor 2: MPVERMRMRPWLEEQINSNTIPGLKWLNKEKKIFQIPWMHAARHGWDVEKDAPLFRNWAIHTGKHQPGVDKPDPKTWKANFRCAMNSLPDIEEVKDKSIKKGNNAFRVYRMLPLSERPSKKGKKPKTEKEDKVKHIKQEPVESSLGLSNGVSDLSPEYAVLTSTIKNEVDSTVNIIVVGQSHLDSNIENQEIVTNPPDICQVVEVTTESDEQPVSMSELYPLQISPVSSYAESETTDSVPSDEESAEGRPHWRKRNIEGKQYLSNMGTRGSYLLPGMASFVTSNKPDLQVTIKEESNPVPYNSSWPPFQDLPLSSSMTPASSSSRPDRETRASVIKKTSDITQARVKSC
Take B5: the “Z score of condensed fraction” value is -0.3538.

B6: JDP2 (protein, UniProt P97875 1-163, looked up)
Jun dimerization protein 2: MMPGQIPDPSVTAGSLPGLGPLTGLPSSALTTEELKYADIRNIGAMIAPLHFLEVKLGKRPQPVKSELDEEEERRKRRREKNKVAAARCRNKKKERTEFLQRESERLELMNAELKTQIEELKLERQQLILMLNRHRPTCIVRTDSVRTPESEGNPLLEQLDKK
In the case of B6, the “Z score of condensed fraction” value is reported as -1.182.

B7: IRF1 (protein, UniProt P10914 1-325, looked up)
Interferon regulatory factor 1: MPITRMRMRPWLEMQINSNQIPGLIWINKEEMIFQIPWKHAAKHGWDINKDACLFRSWAIHTGRYKAGEKEPDPKTWKANFRCAMNSLPDIEEVKDQSRNKGSSAVRVYRMLPPLTKNQRKERKSKSSRDAKSKAKRKSCGDSSPDTFSDGLSSSTLPDDHSSYTVPGYMQDLEVEQALTPALSPCAVSSTLPDWHIPVEVVPDSTSDLYNFQVSPMPSTSEATTDEDEEGKLPEDIMKLLEQSEWQPTNVDGKGYLLNEPGVQPTSVYGDFSCKEEPEIDSPGGDIGLSLQRVFTDLKNMDATWLDSLLTPVRLPSIQAIPCAP
As for B7, the “Z score of condensed fraction” value was -0.5727.

B8: IRF8 (protein, UniProt Q02556 1-426, looked up)
Interferon regulatory factor 8: MCDRNGGRRLRQWLIEQIDSSMYPGLIWENEEKSMFRIPWKHAGKQDYNQEVDASIFKAWAVFKGKFKEGDKAEPATWKTRLRCALNKSPDFEEVTDRSQLDISEPYKVYRIVPEEEQKCKLGVATAGCVNEVTEMECGRSEIDELIKEPSVDDYMGMIKRSPSPPEACRSQLLPDWWAQQPSTGVPLVTGYTTYDAHHSAFSQMVISFYYGGKLVGQATTTCPEGCRLSLSQPGLPGTKLYGPEGLELVRFPPADAIPSERQRQVTRKLFGHLERGVLLHSSRQGVFVKRLCQGRVFCSGNAVVCKGRPNKLERDEVVQVFDTSQFFRELQQFYNSQGRLPDGRVVLCFGEEFPDMAPLRSKLILVQIEQLYVRQLAEEAGKSCGAGSVMQAPEEPPPDQVFRMFPDICASHQRSFFRENQQITV
With B8, the “Z score of condensed fraction” value amounted to 2.123.

B9: IKZF2 (protein, UniProt Q9UKS7 1-526, looked up)
Zinc finger protein Helios: METEAIDGYITCDNELSPEREHSNMAIDLTSSTPNGQHASPSHMTSTNSVKLEMQSDEECDRKPLSREDEIRGHDEGSSLEEPLIESSEVADNRKVQELQGEGGIRLPNGKLKCDVCGMVCIGPNVLMVHKRSHTGERPFHCNQCGASFTQKGNLLRHIKLHSGEKPFKCPFCSYACRRRDALTGHLRTHSVGKPHKCNYCGRSYKQRSSLEEHKERCHNYLQNVSMEAAGQVMSHHVPPMEDCKEQEPIMDNNISLVPFERPAVIEKLTGNMGKRKSSTPQKFVGEKLMRFSYPDIHFDMNLTYEKEAELMQSHMMDQAINNAITYLGAEALHPLMQHPPSTIAEVAPVISSAYSQVYHPNRIERPISRETADSHENNMDGPISLIRPKSRPQEREASPSNSCLDSTDSESSHDDHQSYQGHPALNPKRKQSPAYMKEDVKALDTTKAPKGSLKDIYKVFNGEGEQIRAFKCEHCRVLFLDHVMYTIHMGCHGYRDPLECNICGYRSQDRYEFSSHIVRGEHTFH
As to B9, the “Z score of condensed fraction” value worked out at 1.456.

B10: IRF9 (protein, UniProt Q00978 1-393, looked up)
Interferon regulatory factor 9: MASGRARCTRKLRNWVVEQVESGQFPGVCWDDTAKTMFRIPWKHAGKQDFREDQDAAFFKAWAIFKGKYKEGDTGGPAVWKTRLRCALNKSSEFKEVPERGRMDVAEPYKVYQLLPPGIVSGQPGTQKVPSKRQHSSVSSERKEEEDAMQNCTLSPSVLQDSLNNEEEGASGGAVHSDIGSSSSSSSPEPQEVTDTTEAPFQGDQRSLEFLLPPEPDYSLLLTFIYNGRVVGEAQVQSLDCRLVAEPSGSESSMEQVLFPKPGPLEPTQRLLSQLERGILVASNPRGLFVQRLCPIPISWNAPQAPPGPGPHLLPSNECVELFRTAYFCRDLVRYFQGLGPPPKFQVTLNFWEESHGSSHTPQNLITVKMEQAFARYLLEQTPEQQAAILSLV
As to B10, the “Z score of condensed fraction” value is listed as 1.05.

B11: IKZF1 (protein, UniProt Q13422 1-519, looked up)
DNA-binding protein Ikaros: MDADEGQDMSQVSGKESPPVSDTPDEGDEPMPIPEDLSTTSGGQQSSKSDRVVASNVKVETQSDEENGRACEMNGEECAEDLRMLDASGEKMNGSHRDQGSSALSGVGGIRLPNGKLKCDICGIICIGPNVLMVHKRSHTGERPFQCNQCGASFTQKGNLLRHIKLHSGEKPFKCHLCNYACRRRDALTGHLRTHSVGKPHKCGYCGRSYKQRSSLEEHKERCHNYLESMGLPGTLYPVIKEETNHSEMAEDLCKIGSERSLVLDRLASNVAKRKSSMPQKFLGDKGLSDTPYDSSASYEKENEMMKSHVMDQAINNAINYLGAESLRPLVQTPPGGSEVVPVISPMYQLHKPLAEGTPRSNHSAQDSAVENLLLLSKAKLVPSEREASPSNSCQDSTDTESNNEEQRSGLIYLTNHIAPHARNGLSLKEEHRAYDLLRAASENSQDALRVVSTSGEQMKVYKCEHCRVLFLDHVMYTIHMGCHGFRDPFECNMCGYHSQDRYEFSSHITRGEHRFHMS
Turning to B11, the “Z score of condensed fraction” value came out at 0.01528.

B12: IRF3 (protein, UniProt Q14653 1-427, looked up)
Interferon regulatory factor 3: MGTPKPRILPWLVSQLDLGQLEGVAWVNKSRTRFRIPWKHGLRQDAQQEDFGIFQAWAEATGAYVPGRDKPDLPTWKRNFRSALNRKEGLRLAEDRSKDPHDPHKIYEFVNSGVGDFSQPDTSPDTNGGGSTSDTQEDILDELLGNMVLAPLPDPGPPSLAVAPEPCPQPLRSPSLDNPTPFPNLGPSENPLKRLLVPGEEWEFEVTAFYRGRQVFQQTISCPEGLRLVGSEVGDRTLPGWPVTLPDPGMSLTDRGVMSYVRHVLSCLGGGLALWRAGQWLWAQRLGHCHTYWAVSEELLPNSGHGPDGEVPKDKEGGVFDLGPFIVDLITFTEGSGRSPRYALWFCVGESWPQDQPWTKRLVMVKVVPTCLRALVEMARVGGASSLENTVDLHISNSHPLSLTSDQYKAYLQDLVEGMDFQGPGES
As to B12, the “Z score of condensed fraction” value was determined as 1.843.
